The experiment concerns the target CD19 (UniProt P15391). Nature of the experiment: cell-based or functional assay.

As to “CD19R:CD28:z(CO) CAR containing the 2 point mutations, L235E and N297Q, in the CH2 portion of the IgG4 spacer (CD19R(EQ)), expressed on CMV/CAR T cells”, the total cell increase after 2 rounds of stimulation with irradiated CD19-expressing NIH3T3 cells lay within 120 to 150 fold.

Values taken from patent US20260053918A1.
